Target: the molecule itself
Assay: SEC; MBP-NR2E3 LBD in solution, compared with Bio-rad Protein Standard

B1: MBP-NR2E3 LBD-His6 fusion protein (MBP–NAAAEF linker–NR2E3(217-410)-His6, C275S) (domain or fragment, human, UniProt Q9Y5X4 217-410, looked up)
chain: LDSIHETSARLLFMAVKWAKNLPVFSSLPFRDQVILLEEAWSELFLLGAIQWSLPLDSSPLLAPPEASAAGGAQGRLTLASMETRVLQETISRFRALAVDPTEFACMKALVLFKPETRGLKDPEHVEALQDQSQVMLSQHSKAHHPSQPVRFGKLLLLLPSLRFITAERIELLFFRKTIGNTPMEKLLCDMFKN
notes: Both tags are non-cleavable; Expressed from pETDuet1; also called MBP-NR2E3 fusion protein; apo NR2E3 LBD; source: E. coli BL21 (DE3), purified (Ni-chelating Hi-Trap, Superdex 200 gel filtration); not shown: MBP (joined by the linker NAAAEF), N-terminal, kept; His6, C-terminal, kept
In the case of B1, the “stoichiometry N” value is reported as 2.

Source: PMC3771917, “The Crystal Structure of the Orphan Nuclear Receptor NR2E3/PNR Ligand Binding Domain Reveals a Dimeric Auto-Repressed Conformation” (PLoS ONE, 2013)
